Data published in article PMC10774353, “Multi-scale structures of the mammalian radial spoke and divergence of axonemal complexes in ependymal cilia” (Nature Communications, 2024).

T1: Rsph4a (mouse, UniProt Q8BYM7 1-716)
T1 construct: Rsph4a (radial spoke head protein 4 homolog A), mouse, NM_001162957; Two copies stand in each RS head
T1 sequence: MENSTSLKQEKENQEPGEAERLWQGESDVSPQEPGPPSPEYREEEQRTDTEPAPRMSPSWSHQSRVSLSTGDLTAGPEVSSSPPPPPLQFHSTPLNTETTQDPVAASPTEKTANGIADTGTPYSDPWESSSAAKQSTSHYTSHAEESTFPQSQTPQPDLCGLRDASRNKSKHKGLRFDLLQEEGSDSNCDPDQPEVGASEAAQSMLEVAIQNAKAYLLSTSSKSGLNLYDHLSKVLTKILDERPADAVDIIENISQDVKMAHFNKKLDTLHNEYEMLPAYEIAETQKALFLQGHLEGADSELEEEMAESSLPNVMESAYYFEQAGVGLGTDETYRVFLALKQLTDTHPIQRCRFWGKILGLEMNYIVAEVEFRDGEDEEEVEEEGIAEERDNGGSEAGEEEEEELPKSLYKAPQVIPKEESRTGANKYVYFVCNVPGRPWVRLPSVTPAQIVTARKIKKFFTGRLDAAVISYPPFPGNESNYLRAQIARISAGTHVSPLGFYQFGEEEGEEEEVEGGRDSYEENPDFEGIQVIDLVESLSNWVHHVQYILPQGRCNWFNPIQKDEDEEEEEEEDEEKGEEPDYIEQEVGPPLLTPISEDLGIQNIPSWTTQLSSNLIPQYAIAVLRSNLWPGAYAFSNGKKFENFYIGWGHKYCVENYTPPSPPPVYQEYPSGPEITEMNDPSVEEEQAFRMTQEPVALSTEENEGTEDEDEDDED

B1: Rsph3b (natural protein, mouse)
chain: MTDRNPRTAEASGLYTYSSRPRAVACQRRRHRDSILQPVEEPMSYGNIMYDRRVIRGNTYALPTGQVPGQPDPLELQRQQQARRRALARKRAQEQLKPRTPEPVEGRKHVDIQTELYLEEIADRIVEVDMECQTDAFLDRPPTPLFIPAKTGKDVATQILGGELFDFDLEVKPMLEVLVGKTIEQSLLEVMEEEELANLRARQYAYEEIRNVELAEVQRLEEQERRHREEKERRKKQQWEIVHKRNETLQKISALIFARQYLANLLPSVFDKLRNSGFFYDPIERDIEVGFLPWLMNEVEKSMEHSMVGRTVLDMLIRDVVERRINDYEHKEAMPPGQKTNVINGPNTVTDPSVTTLHTQKPVLDRVSSQPAPSQERKPVEEGGHLMAE
notes: Rsph3b (radial spoke head protein 3 homolog B), mouse, NM_001083945; non-tagged, in pcDNA3.4; Non-tagged
B2: Rsph23 (natural protein, mouse)
chain: MEVSMPLPQIYVEKTLALIKPDVVDKEEEIQDIILGSGFTIIQRRKLHLSPEHCSNFYVEQYGKMFFPNLTAYMSSGPLVAMILARHKAISYWKELMGPSNSLVAKETHPDSLRAIYGTDELRNALHGSNDFAASEREIRFMFPAVIIEPIPIGQAAKDYINLYVAPTLLQGLTELCKEKPPDPYLWLADWLMKNNPNKPKLCHFPVTEEP
notes: Rsph23, mouse, NM_080637
B3: Rsph9 (natural protein, mouse)
chain: MDADSLLLSLELASGSGQGLSPDRRASLLTSLMLVKRDYRFARVLFWGRILGLVADYYIAQGLSEDQLAPRKTLYSLNCTEWSLLPPATEEMAMQISVVSGRFMGDPSHEYEHTELQKVNEGEKVFDEEVVVQIKEETRLVSIIDQIDKAVAIIPRGALFKTPFGVTHVNRTFEGLPLSEVRKLSSYFHFREAIDLKNKTLLEKSDLEPSLDFLDSLEYDIPRGSWSIQMERGNALVVLRSLLWPGLTFYHAPRTKNYGYIYVGTGEKNMDLPFML
notes: Rsph9 (radial spoke head protein 9 homolog), mouse, NM_029338; non-tagged, in pcDNA3.4; Two copies stand in each RS head; Non-tagged
B4: FLAG-tagged Rsph16 (natural protein, mouse, UniProt Q80Y75 1-316, looked up)
chain: MGLDYYAVLQVTRNSEDAQIKKAYRKLALKNHPLKSSEPGAPEIFKQIAEAYDVLSDPVKRGIYDKFGEEGLKGGIPLEFGSQTPWTTGYVFHGNPDKVFHEFFGGDNPFSEFFDAEGNDIDLNFGGLWGRGVQKQDPPIERDLYLSLEDLFFGCTKKIKISRRVLNEDRYSSTIKDKILTIDVRPGWRQGTRITFEKEGDQGPNIIPADIIFIVKEKLHPRFRREHDNLFFVYPIPLGKALTCCTVEVKTLDDRLLNIPINDIVHPKYFKIVPGEGMPLPENPSKKGDLFIFFDIQFPTRLTPQKKQMLRQALLT
notes: Rsph16 (homologue of HSP40, DnaJ family), mouse, NM_153527; full-length gene amplified from cDNAs of mouse ependymal cells, in pcDNA3.4; Stands as a homodimer (the arch bridge Rsph16-Rsph16') in both the head-neck monomer and the head-neck dimer; not shown: 3xFLAG, N-terminal, kept

Tests used:
Test in all cases: cryo-EM structure; RS head-neck complex co-expressed in HEK293F, purified by Strep-Tactin then anti-FLAG beads, cross-linked by GraFix (0-0.1% glutaraldehyde, 10-40% glycerol, 4 °C); monomer map 3.28 Å, dimer map 3.57 Å
Rsph4a = biological target: T1, Rsph4a; details: both partners purified
FLAG-tagged Rsph16 = biological target: B4; details: both partners purified
Rsph3b = biological target: B1; details: both partners purified
[1] = biological target: the molecule itself

Binder	binding result (Rsph4a)	binding result (FLAG-tagged Rsph16)	binding result (Rsph3b)	stoichiometry N [1]
B1	binds			
B2		binds	binds	
B3	binds	binds		
B4				2
